The values that follow come from US20160280799A1.

In experiment [1] the target is hemagglutinin (HA) of A/Vietnam/1194/04 (H5N1) on MLV(HA) pseudotyped virions (influenza A virus A/Vietnam/1194/04 (H5N1)).
Substrate in experiment [2]: F protein of RSV (Long strain) (human respiratory syncytial virus, Long strain) (UniProt P12568)
Nature of the experiment: cell-based or functional assay.

Sequence of F protein of RSV (Long strain) (human respiratory syncytial virus, Long strain) (P12568 26-574): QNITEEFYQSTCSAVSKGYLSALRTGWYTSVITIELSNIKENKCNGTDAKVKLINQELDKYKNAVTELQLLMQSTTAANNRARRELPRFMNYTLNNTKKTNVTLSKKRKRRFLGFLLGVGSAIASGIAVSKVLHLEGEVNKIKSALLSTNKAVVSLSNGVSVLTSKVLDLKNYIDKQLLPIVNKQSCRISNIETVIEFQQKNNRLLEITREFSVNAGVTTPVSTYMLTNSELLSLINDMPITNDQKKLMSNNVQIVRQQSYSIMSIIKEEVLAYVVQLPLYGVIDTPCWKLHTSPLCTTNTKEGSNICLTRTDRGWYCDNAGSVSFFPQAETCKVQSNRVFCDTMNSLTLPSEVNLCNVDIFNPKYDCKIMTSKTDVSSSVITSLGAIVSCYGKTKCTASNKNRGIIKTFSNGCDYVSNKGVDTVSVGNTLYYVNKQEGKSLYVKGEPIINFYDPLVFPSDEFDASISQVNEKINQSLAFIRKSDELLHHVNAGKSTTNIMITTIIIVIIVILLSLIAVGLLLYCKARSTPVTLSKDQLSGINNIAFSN

B1: 203-B12 (VHH)
VHH: EVQLVESGGGLVQPGGSLRLSCAASGFTFSSYAMGWVRRAPGEGLEWVSSISSGGALPTYADSVKGRFTISRDNVKNTLYLQMNSLKPEDTAVYSCEKYAGSMWTSERDAWGQGTQVTVSS
On to B1, for which, in experiment [1], the IC50 (read off the curve) came out at 10 nM.

B2: building block of RSV407 (monovalent) (VHH)
VHH: EVQLVESGGGLVQAGGSLSISCAASGGSLSNYVLGWFRQAPGKEREFVAAINWRGDITIGPPNVEGRFTISRDNAKNTGYLQMNSLAPDDTAVYYCGAGTPLNPGAYIYDWSYDYWGRGTQVTVSS
In the case of B2, the IC50, neutralization of RSV infection, Long strain in experiment [2] was 50 to 100 nM.

B3: 203-H9 (VHH)
VHH: EVQLVESGGGLVQPGGSLRLSCTGSGFTFSSYWMDWVRQTPGKDLEYVSGISPSGGNTDYADSVKGRFTISRDNAKNTLYLQMNSLQPEDTALYYCRRSLTLTDSPDLRSQGTQVTVSS
For B3, the IC50 (read off the curve) in experiment [1] is 8 nM.

B4: 202-C8 (VHH)
VHH: EVQLVESGGGLVQPGGSLRLSCTGSGFTFSSYWMDWVRQTPGKDLEYVSGISPSGSNTDYADSVKGRFTISRDNAKNTLYLQMNSLKPEDTALYYCRRSLTLTDSPDLRSQGTQVTVSS
In experiment [1], B4 yielded an IC50 (read off the curve) of 10 nM.
